Legend:
[1] = test system: NC[C@H](O)P(=O)(O)O; assay: purified protein; details: TEA-HCl pH 8.0, 25 °C, 5 mM MgCl2, 5 μM PLP, 0.07% BSA, 1,2-elimination
[2] = target: PhnX (Vibrio splendidus, UniProt A0ABV4LR11); assay: 1H NMR, disappearance of PAA; type: biochemical; details: PAA generated in situ by PhnW or PbfA; 50 mM potassium phosphate pH 8.0, 100 mM KCl, 5 mM MgCl2, 25 °C

Molecule | Km [1] [µM] | kcat [1] [s^–1] | 1H NMR, disappearance of PAA [2]
PbfA (Vibrio splendidus 12B01) | 430 ± 60 | 5.3 ± 0.3 | 
O=CCP(=O)(O)O [PAA] |  |  | Addition of PhnX (blue) led to disappearance of PAA

Source: paper PMC8154272, “Discovery of a New, Recurrent Enzyme in Bacterial Phosphonate Degradation: (R)-1-Hydroxy-2-aminoethylphosphonate Ammonia-lyase” (Biochemistry, 2021)
